Consider eight molecules from patent US20110118131A1 (published 2011).

For this assay, the target named is T1, Ep-CAM (UniProt P16422 24-265, limits assumed).
T1 construct: Antigen of the Biacore analysis of ING-1 variants
T1 sequence (looked up): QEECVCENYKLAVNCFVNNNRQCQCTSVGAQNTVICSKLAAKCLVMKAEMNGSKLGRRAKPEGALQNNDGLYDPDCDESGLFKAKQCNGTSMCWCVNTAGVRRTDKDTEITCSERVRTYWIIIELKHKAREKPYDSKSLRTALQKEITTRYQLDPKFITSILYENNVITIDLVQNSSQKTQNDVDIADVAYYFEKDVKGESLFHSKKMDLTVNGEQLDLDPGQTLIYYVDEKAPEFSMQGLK
Kind of assay: Biacore, Fab periplasmic extract.

B1: ING-1 heavy chain G100Q (Fab, V domains shown)
VH: QIQLVQSGPELKKPGETVKISCKASGYTFTKYGMNWVKQAPGKGLKWMGWINTYTEEPTYGDDFKGRFAFSLETSASTANLQINNLKSEDTATYFCARFQSAVDYWGQGTSVTVSS
VL: DIVMTQAAFSNPVTLGTSGSISCRSSKSLLHSNGITYLYWYLQKPGQSPQLLIYQMSNLASGVPDRFSSSGSGTDFTLRISRVEAEDVGVYYCAQNLELPRTFGGGTKLEMKR
Regarding B1, the binding result is recorded as “no binding”.

B2: ING-1 heavy chain G100Y (Fab, V domains shown)
VH: QIQLVQSGPELKKPGETVKISCKASGYTFTKYGMNWVKQAPGKGLKWMGWINTYTEEPTYGDDFKGRFAFSLETSASTANLQINNLKSEDTATYFCARFYSAVDYWGQGTSVTVSS
VL: DIVMTQAAFSNPVTLGTSGSISCRSSKSLLHSNGITYLYWYLQKPGQSPQLLIYQMSNLASGVPDRFSSSGSGTDFTLRISRVEAEDVGVYYCAQNLELPRTFGGGTKLEMKR
As to B2, the binding result is “no binding”.

B3: ING-1 heavy chain N52E (Fab, V domains shown)
VH: QIQLVQSGPELKKPGETVKISCKASGYTFTKYGMNWVKQAPGKGLKWMGWIETYTEEPTYGDDFKGRFAFSLETSASTANLQINNLKSEDTATYFCARFGSAVDYWGQGTSVTVSS
VL: DIVMTQAAFSNPVTLGTSGSISCRSSKSLLHSNGITYLYWYLQKPGQSPQLLIYQMSNLASGVPDRFSSSGSGTDFTLRISRVEAEDVGVYYCAQNLELPRTFGGGTKLEMKR
On to B3, for which the binding result is “no binding”.

B4: ING-1 heavy chain G100W (Fab, V domains shown)
VH: QIQLVQSGPELKKPGETVKISCKASGYTFTKYGMNWVKQAPGKGLKWMGWINTYTEEPTYGDDFKGRFAFSLETSASTANLQINNLKSEDTATYFCARFWSAVDYWGQGTSVTVSS
VL: DIVMTQAAFSNPVTLGTSGSISCRSSKSLLHSNGITYLYWYLQKPGQSPQLLIYQMSNLASGVPDRFSSSGSGTDFTLRISRVEAEDVGVYYCAQNLELPRTFGGGTKLEMKR
On to B4, for which the binding result is reported as “no binding”.

B5: ING-1 heavy chain N52F (Fab, V domains shown)
VH: QIQLVQSGPELKKPGETVKISCKASGYTFTKYGMNWVKQAPGKGLKWMGWIFTYTEEPTYGDDFKGRFAFSLETSASTANLQINNLKSEDTATYFCARFGSAVDYWGQGTSVTVSS
VL: DIVMTQAAFSNPVTLGTSGSISCRSSKSLLHSNGITYLYWYLQKPGQSPQLLIYQMSNLASGVPDRFSSSGSGTDFTLRISRVEAEDVGVYYCAQNLELPRTFGGGTKLEMKR
On to B5, for which the binding result is listed as “no binding”.

B6: ING-1 heavy chain N52D (Fab, V domains shown)
VH: QIQLVQSGPELKKPGETVKISCKASGYTFTKYGMNWVKQAPGKGLKWMGWIDTYTEEPTYGDDFKGRFAFSLETSASTANLQINNLKSEDTATYFCARFGSAVDYWGQGTSVTVSS
VL: DIVMTQAAFSNPVTLGTSGSISCRSSKSLLHSNGITYLYWYLQKPGQSPQLLIYQMSNLASGVPDRFSSSGSGTDFTLRISRVEAEDVGVYYCAQNLELPRTFGGGTKLEMKR
Take B6: the “fold difference in affinity vs original” value worked out at 0.02 fold.

B7: ING-1 heavy chain K31Y (Fab, V domains shown)
VH: QIQLVQSGPELKKPGETVKISCKASGYTFTYYGMNWVKQAPGKGLKWMGWINTYTEEPTYGDDFKGRFAFSLETSASTANLQINNLKSEDTATYFCARFGSAVDYWGQGTSVTVSS
VL: DIVMTQAAFSNPVTLGTSGSISCRSSKSLLHSNGITYLYWYLQKPGQSPQLLIYQMSNLASGVPDRFSSSGSGTDFTLRISRVEAEDVGVYYCAQNLELPRTFGGGTKLEMKR
For the molecule B7, the “fold difference in affinity vs original” value is 1 fold.

B8: ING-1 heavy chain K31N (Fab, V domains shown)
VH: QIQLVQSGPELKKPGETVKISCKASGYTFTNYGMNWVKQAPGKGLKWMGWINTYTEEPTYGDDFKGRFAFSLETSASTANLQINNLKSEDTATYFCARFGSAVDYWGQGTSVTVSS
VL: DIVMTQAAFSNPVTLGTSGSISCRSSKSLLHSNGITYLYWYLQKPGQSPQLLIYQMSNLASGVPDRFSSSGSGTDFTLRISRVEAEDVGVYYCAQNLELPRTFGGGTKLEMKR
Regarding B8, the binding result is “no binding”.
